Values quoted from earlier work in PMC9084902, “Low-Molecular Weight Protamine Overcomes Chondroitin Sulfate Inhibition of Neural Regeneration” (Frontiers in Cell and Developmental Biology, 2022).

Experiments:
[1] = ref Rauvala, 1989; cited from earlier work
Excerpt: Protamine is a small 33 amino acid long protein that takes part in DNA packing during spermatogenesis ([Kasinsky et al., 2011]). Over 60% of the salmon protamine sequence is comprised of arginines so that it interacts strongly with negatively charged DNA phosphates in vivo and potentially with any other negatively charged molecules. […] Protamine sulfate is therefore widely used as a drug in cardiopulmonary bypass surgery to stop the effect of heparin ([Kaneda et al., 2005]; [Bromfield et al. ... || The CS chains even enhance the neurite outgrowth-promoting effect of HB-GAM, and we have ended up in a model according to which the CS chains of the CSPGs display a positive role by concentrating HB-GAM on the matrix and presenting it to neuron surface receptors. According to our model, two polycationic regions separated by a linker are essential to reverse the CS inhibition of neurite outgrowth ([Paveliev et al., 2016]; [Rauvala et al., 2017]). To test our hypothesis we decided to search for peptide structures that are similar to HB-GAM and display similar binding properties. Protamine displa ...

glypican-1 = settings: through heparan sulfate chains; ref Paveliev et al., 2016; cited from earlier work
Excerpt: In the case of HB-GAM we have identified glypican-1 as a neuron surface receptor using unbiased mass spectrometry search of neuron binding sites for the substrate-attached HB-GAM ([Paveliev et al., 2016]). […] Interaction of glypican-1 with LMWP also appears likely since LMWP binds to heparin/heparan sulfate chains. Another possible cell surface receptor of LMWP is the transmembrane receptor PTPRZ (protein tyrosine ph ...

CNS neurons = settings: aggrecan and a CSPG mixture isolated from brain; ref Paveliev et al., 2016; cited from earlier work
Excerpt: (§1) Our candidate protein to overcome the CS inhibition on neurite outgrowth and regeneration has been HB-GAM (heparin-binding growth-associated molecule; pleiotrophin) that was initially isolated by screening for factors from juvenile rat brain that enhance neurite outgrowth in CNS neurons ([Rauvala, 1989]; [Li et al., 1990]; [Merenmies and Rauvala, 1990]). […] Furthermore, we have recently shown t ...

[2] = tested on: hemisection and hemicontusion spinal cord injury models; settings: mice; ref Kulesskaya et al., 2021; cited from earlier work
Excerpt: as §1

B1: heparin-binding growth-associated molecule (protein, UniProt P63090 33-168, looked up)
Pleiotrophin: GKKEKPEKKVKKSDCGEWQWSVCVPTSGDCGLGTREGTRTGAECKQTMKTQRCKIPCNWKKQFGAECKYQFQAWGECDLNTALKTRTGSLKRALHNADCQKTVTISKPCGKLTKPKPQAESKKKKKEGKKQEKMLD
notes: initially isolated by screening for factors from juvenile rat brain that enhance neurite outgrowth in CNS neurons
What does the source list for B1?
binding to heparin [1]: binds avidly to heparin; binding to glypican-1 (glypican-1): binds to HB-GAM through its heparan sulfate chains; neurite outgrowth on CSPG substrates (CNS neurons): overcomes the CS inhibition and enhances neurite outgrowth on CSPG substrates; functional recovery after spinal cord injury [2]: enhances functional recovery in hemisection and hemicontusion spinal cord injury models in mice
